Assays:
[1] = biological target: C33S mutant human TGF-β1 (pro-TGF-β1 and latent TGF-β1), expressed in murine BW5147 T cells (human); assay: non-reducing SDS-PAGE and western blot of immunoprecipitates; anti-GARP IP products of cell lysates; SDS-PAGE under non-reducing conditions; WB with anti-LAP antibodies
[2] = biological target: C33S mutant human TGF-β1 (pro-TGF-β1 and latent TGF-β1), expressed in 293 cells (human); assay: as above
[3] = biological target: wild type human TGF-β1 (pro-TGF-β1 and latent TGF-β1), expressed in 293 cells (human); assay: non-reducing SDS-PAGE and western blot of culture supernatants; cells incubated in serum-free medium for 24 or 48 hours; supernatants analysed by WB under non-reducing conditions with anti-GARP and anti-LAP antibodies
[4] = biological target: TGF-β1 (pro-TGF-β1 and latent TGF-β1), endogenous in human T cells (human (endogenous in human T cells)); assay: as above

Substance: C33S mutant human TGF-β1 (pro-TGF-β1 and latent TGF-β1), expressed in murine BW5147 T cells (ligand)
- stoichiometry N [1]: 2

Substance: C33S mutant human TGF-β1 (pro-TGF-β1 and latent TGF-β1), expressed in 293 cells (ligand)
- stoichiometry N [2]: 2

Substance: wild type human TGF-β1 (pro-TGF-β1 and latent TGF-β1), expressed in 293 cells (ligand)
- stoichiometry N [3]: 2

Substance: TGF-β1 (pro-TGF-β1 and latent TGF-β1), endogenous in human T cells (ligand)
- stoichiometry N [4]: 2
